In the test the target is T1, CD20蛋白 (UniProt P11836, 297 amino acids) (human, UniProt P11836 1-297).
T1 construct: whole, on cells; Endogenous CD20 in formalin-fixed paraffin tissue sections (B-cell lymphoma, tonsil, appendix) detected by IHC. 'Human' is stated for CD20 in the abstract; The species of the tissues is not explicitly stated
T1 sequence (looked up): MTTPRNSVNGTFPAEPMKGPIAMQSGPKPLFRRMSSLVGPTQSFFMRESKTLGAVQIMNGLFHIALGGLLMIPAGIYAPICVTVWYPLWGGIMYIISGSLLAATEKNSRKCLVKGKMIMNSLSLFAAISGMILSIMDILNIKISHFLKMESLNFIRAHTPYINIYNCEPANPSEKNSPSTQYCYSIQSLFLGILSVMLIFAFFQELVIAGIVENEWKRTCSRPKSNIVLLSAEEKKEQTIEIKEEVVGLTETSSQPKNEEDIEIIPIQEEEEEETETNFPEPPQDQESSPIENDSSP
The experiment in a line: IHC, appendix tissue (Fig. 5).

B1: 抗CD20蛋白单克隆抗体 (secreted by mouse hybridoma cell line AbM58020-32A8-PU, CGMCC NO.17491) (antibody, V domains shown)
VH: EVKLQESGPSLVKPGASVKISCKASGNTFTDYYMNWVRQSHGQSLEWIGRFIPSTAKTNYNHKFKDKATLTLDTSLSTAYMQLNSLTSEDSAVYYCRSDFAFWGQGTLVTVSA
VL: DILMTQSPLSLSITIGQPASISCKSSQSLLYSNGKTYLNWLLQRPGQSPKRLIYIVSKLDSGVPDRFTGSGSGTDFTLKISRVEAEDLGVYYCGQGTHYPPTFGGGTKLEIK
notes: also called AbM58020-32A8-PU的CD20; AbM58020-32A8-PU杂交瘤分泌抗体
As to B1, the binding result is “binds”.

The values above are taken from patent CN111363043A (FUZHOU MAIXIN BIOTECHNOLOGY DEV CO LTD, dated 2020).
